Assay results from the supplement of paper PMC9170038.

Test system: MS2 coat protein
Assay: apparent KD of MS2 coat protein; designed switch direction (-1 OFF switch, 1 ON switch): -1; higher = weaker reporter binding
How it was run: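 Normalised cluster fluorescence was curve-fitted, and each design's median over clusters is its apparent KD. Before this, SNAP-549-labelled MS2 coat protein was titrated from 0.7 or 1.5 nM, doubling to 3 µM, over RNA switches transcribed on Illumina chips by stalled E. coli RNA polymerase. Titrations had no input, 200 uM small-molecule ligand, or an oligonucleotide input, and steps lasted 0.8–1.5 h (lowest) to 10–20 min (highest).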

[1] = Eterna round: R95, input ligand: FMN 200 uM
[2] = Eterna round: R95, input ligand: microRNA oligo, concentration not stated
[3] = Eterna round: R95, input ligand: none
[4] = input ligand: microRNA oligo, concentration not stated

Sequence | apparent KD of MS2 coat protein [1] | apparent KD of MS2 coat protein [2] | apparent KD of MS2 coat protein [3] | apparent KD of MS2 coat protein [4] | apparent KD of MS2 coat protein (input ligand: FMN 200 uM) | apparent KD of MS2 coat protein (input ligand: none)
GCUUGGCGAGGAUAUACAUGAGGAUCACCCAUGUGAGAGAAAGAAGUGAGGAAGAAAAGUAGAAGGCGCUGAGG [Mat - Exclusion 3 - Mod of Salish D60] (puzzle: Exclusion 3) | 165 nM | 50.5 nM | 75.4 nM | – | – | –
UACAUGAGGAUCACCCAUGUUUUGUCGUGUAUGGUAUUUAUCUAGGAUAUCAAUUGAGUUAUUUAUGAGAAGGAGAAUAUUAAU [JMF's solution 59] (Eterna round: R96, puzzle: Exclusion NG 3) | – | – | – | 31.6 nM | – | –
AGUCAGGCGGUAGGAUAUCCAAACCGAGUGACCCUUACAUAACAUGAGGAUCACCCAUGUCGGUGGGAGAAGGGCCGUAAGGCA [Mat - Exclusion NG 2 - Mod of JL - D67] (Eterna round: R96, puzzle: Exclusion NG 2) | – | – | – | 349 nM | 517 nM | 113 nM
CCAAGCUUAUUCAUUAACCACAUGAGGAUCACCCAUGUCUAGGCAAUUAUGACUUGCCCAUCAGGUGCUCGUCUUAU [Sensor-V1 #33] (Eterna round: R97, puzzle: Sensor, turn-off variant 1) | – | – | – | – | 68.7 nM | 72.3 nM
ACAUGAGGAUCACCCAUGUCAGGCGGGUCUACUCCGGCUGUUGAGGAUAUAGUUCGGUAUCCGCGCUAGAAGGUGAGGGCCGGC [Aenatbe mod 23] (Eterna round: R96, puzzle: Exclusion NG 3) | – | – | – | 14.9 nM | 20.8 nM | 21.8 nM
AAGAAAGACGAAGGAUAUUCAGGCGCCGAAGUAGAAGAAGGUCGUCCGGGUGUCCUAAAACUUGAGGAUCACCCAAGUAGAAGA [Mutated MS2 EX1.2] (Eterna round: R96, puzzle: Exclusion NG 1) | – | – | – | 6.43 nM | 62.1 nM | 25.5 nM
CGAGAGCGAGGAUAUACACAACACCUCACUGUCAAGAAAGGACAUGAGGAUCACCCAUGUAGAAGGUGCAAAGC [Xecerevear] (puzzle: Exclusion 2) | 303 nM | 412 nM | 326 nM | – | – | –
UUUUUGUCAGGAUAUGAGUAGUAGAACAAUAGUACUACUACUCAGAAGGGACAUGAGGAUCACCCAUGUUCCUC [Fiskers Ex 4 Super stable 44 mod 18] (puzzle: Exclusion 4) | – | 14.4 nM | – | – | – | –
GUAUGUGAGAGAGGAUAUCGUGUACAAAGUACACGAGAAGGCUUCACAUGAGGAUCACCCAUGUACCGAGGUGAAACACCUUGA [Omei Exc(NG)1 Bv9] (Eterna round: R96, puzzle: Exclusion NG 1) | – | – | – | 298 nM | 1870 nM | 423 nM
GUUGUUUAUGUAGGAUAUGCCUGGCGUGCCUUAGCAGAAGGACAUGAGGAUCACCCAUGUAUUGCGGUCUGCGUUCAGAUCGCU [salish99_ExNG1_r4_021] (Eterna round: R96, puzzle: Exclusion NG 1) | – | – | – | 25.1 nM | 37 nM | 29.6 nM
GACUGCUGAGGAUAUACAUGAGGAUCACCCAUGUGCUUCAGCUACGAGAGUAGCAUUGGUAGAAGGUAGUAGUC [LRO-Excl3-04] (puzzle: Exclusion 3) | – | 11.1 nM | – | – | – | –
UUCCGGCAUGUAGGAUAUGGAUCCGAUUAGGAUUUAGAAGGACAUGAGGAUCACCCAUGUGCAUUUAAUUAGUCAUUACCGUUU [EXclNG1-LROPPY06] (Eterna round: R96, puzzle: Exclusion NG 1) | – | – | – | 34.4 nM | – | –
ACAAGCUUUUUGUUCGUCUUAUACACUCCUAAUAAGAAAACAUGAGGAUCACCCAUGUAAGAAAUAAGAACUCAUGU [Sesor Array 1 - Jieux - Sensor v3, turn-off variant 2] (puzzle: Sensor v3, turn-off variant 2) | 225 nM | 303 nM | 213 nM | – | – | –
UCUCGCUGGCGAGGAUAUCCUGUGCGGUUCCGGCUCGUGUCUGUUACAUGAGGAUCACCCAUGUGGGAGAAGGUGUCUGUGGCC [Design 96] (Eterna round: R96, puzzle: Exclusion NG 2) | – | – | – | 15.4 nM | 16.7 nM | 18.8 nM
UUAUUGUGAGGAUAUCAGGUGUGCUAGCGUACUGGUACAUCUGAGAAGGCACAUGAGGAUCACCCAUGUUCCUU [JL-ex4-3.26 Brourd mod] (puzzle: Exclusion 4) | – | 14.4 nM | – | – | – | –
GGGAGGGAUACAGGAUAUAUGACAUGAGGAUACAUGAGACAUACAAACAUGAGGAUCACCCAUGUAUAGAAGGGUAAGGGAGGG [Another guess] (Eterna round: R96, puzzle: Exclusion NG 2) | – | – | – | 126 nM | – | –
CCCAUGCCUGAGGAUAUGCUGUACAAAAGUACUGCAGAAGGCGGGACAUGAGGAUCACCCAUGUGGCGAAAGCC [Omei Ex G6] (Eterna round: R97, puzzle: Exclusion 6) | – | – | – | – | 67 nM | 326 nM
CUACUCGUUGUGAGGAUAUCGUUUUCGUCACGGAUCGAGAAGGCACAUGAGGAUCACCCAUGUUUGAUGUGGAU [JR_BMOE4_Sub091] (Eterna round: R96, puzzle: Brourd's mod of Exclusion 4) | – | – | – | 29.9 nM | 89 nM | 38.1 nM
AAUACAAGCUAUUGAUCCCACAUGAGGAUCACCCAUGUAUAUGCCGGUGACACCUGCAUGACGAUAGCUCGUCUUAU [Sensor-V1 #59] (Eterna round: R97, puzzle: Sensor, turn-off variant 1) | – | – | – | – | 577 nM | 758 nM
CCUGUGACGCAGGAUAUCGAGCACAAUGCAUGUUGAGAAGGGCGUACAUGAGGAUCACCCAUGUCUCACGUAGG [Eternabot (L1) Solution 53] (Eterna round: R97, puzzle: Exclusion 6) | – | – | – | – | 175 nM | 316 nM
AGAUGUAGAUACCGAUCCUACAUGAGGAUCACCCAUGUAGCUAGACGUGCUCGCGUCGCUCGUCAGACUACCAGUAG [salish99_TOv1_r3_089] (puzzle: Sensor v3, turn-off variant 1) | 267 nM | 199 nM | 259 nM | – | – | –
CUUAGCCUAAAAUCACGCAAGCUUUUUGCUUGUCUAAAGACAUGAGGAUCACCCAUGUCCGGGCUGAACUUAUGGAA [Atqusoen] (puzzle: Sensor v3, turn-off variant 2) | 17.7 nM | 18.1 nM | 16 nM | – | – | –
AACGUACGUCGAGGAUAUGACGAGAAAUAUGAGUCAGAAGGCGACUGGUACAUGAGGAUCACCCAUGUUGCGACCAUGUGGCUU [Eternabot solution 23] (Eterna round: R96, puzzle: Exclusion NG 1) | – | – | – | 13.4 nM | 53.7 nM | 17.9 nM
ACAUGAGGAUCACCCAUGUCCGUCUGGUCUGUCUCGGCUGUCGAGGAUAUAGCUCGGUAUCCGCGCUAGAAGGCGGGAGUCGGC [Aenatbe mod 96] (Eterna round: R96, puzzle: Exclusion NG 3) | – | – | – | 17.3 nM | 26.4 nM | 31.9 nM
CUUCACCCACCAAAGCUCACCCACAUACCUGCUCUGGUGACAUGAGGAUCACCCAUGUUUUUUGCCCGUCUUAUCUU [Leso] (puzzle: Sensor v3, turn-off variant 2) | 40.7 nM | 163 nM | 41.4 nM | – | – | –
